Reference: patent publication US20090111753A1, “Nogo-A Polypeptide Fragments, Variant Nogo Receptor-1 Polypeptides, and Uses Thereof” (Yale University, priority 2004, published 2009)

T1: AP-Nogo66 (Homo sapiens, UniProt Q9NQC3)
T1 construct: made in house; NgR mutants: COS-7
T1 sequence (Q9NQC3 1055-1120 limits assumed): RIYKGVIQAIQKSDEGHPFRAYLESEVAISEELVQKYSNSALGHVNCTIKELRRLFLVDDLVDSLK

T2: AP-B4C (Homo sapiens, UniProt Q9NQC3)
T2 construct: a.a; 950-1018 (AmNg B4C); made in house; host or cells: AP ligand: HEK293T conditioned medium; NgR mutants: COS-7
T2 sequence (Q9NQC3 950-1018): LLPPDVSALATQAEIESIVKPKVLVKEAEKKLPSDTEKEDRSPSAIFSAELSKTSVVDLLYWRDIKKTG

T3: AP-Lingo-1 (Homo sapiens, UniProt Q96FE5)
T3 construct: made in house; NgR mutants: COS-7
T3 sequence (Q96FE5 40-538 limits assumed): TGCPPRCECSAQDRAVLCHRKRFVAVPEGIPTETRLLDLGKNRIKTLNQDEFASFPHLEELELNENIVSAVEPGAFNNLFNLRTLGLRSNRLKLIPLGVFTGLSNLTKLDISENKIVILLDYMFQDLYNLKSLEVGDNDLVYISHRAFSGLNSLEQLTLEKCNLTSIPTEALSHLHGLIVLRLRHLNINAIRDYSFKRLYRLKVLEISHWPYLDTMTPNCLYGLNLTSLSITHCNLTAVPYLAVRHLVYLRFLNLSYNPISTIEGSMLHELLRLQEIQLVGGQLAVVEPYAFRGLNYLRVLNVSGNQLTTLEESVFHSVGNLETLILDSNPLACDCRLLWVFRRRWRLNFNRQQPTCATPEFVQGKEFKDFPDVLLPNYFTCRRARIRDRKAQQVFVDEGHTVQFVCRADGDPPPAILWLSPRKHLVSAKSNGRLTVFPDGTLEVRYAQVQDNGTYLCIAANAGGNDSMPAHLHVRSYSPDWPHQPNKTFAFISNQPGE


Assays:
AP-Nogo66 = biological target: T1, AP-Nogo66; test: Binding of AP-Nogo66 to COS-7 cells expressing NgR mutants; set-up: key: ++: WT level; +: weaker than wild type; trace binding; −: no binding; conditions: AP-Ng66 5 nM; level of binding compared to wild type NgR
Experimental: (§1) FIG. 4A. […] Binding of AP or AP fused NgR ligands to COS-7 cells expressing different NgR mutants as indicated. The concentrations of ligands applied were: AP, 30 nM; AP-Ng66, 5 nM; AP-Ng33, 10 nM; AP-B4C, 10 nM; AP-B4C66, 0.5 nM; AP-Lingo-1, 10 nM; AP-OMGP, 10 nM; AP-MAG, 30 nM. These concentrations are close to the binding Kd of these proteins to NgR so that any […] is reflected linearly in staining.
(§2) FIG. 4B. AP binding of NgR ligands to NgR mutants expressed as percentage of wild type NgR. AP after incubation with AP fused ligands, AP bound to COS-7 cells expressing NgR or NgR mutants were stained and measured.
(§3) To better define how multiple ligands bind to the NgR protein, we examined a series of Ala-substituted NgR for ligand binding activity. NgR mutagenesis was done using the Quick Change Multisite Directed Mutagenesis Kit (Stratagene catalog #200514). Human NgR1 was used as a template. Ala substitutions were generated for each of the charged residues predicted to be solvent accessible at the surface of the ligand binding domain of NgR (Barton, W. A., et al., Embo J. 22:3291-3302 (2003); He, X. L., et al., Neuron 38:177-185 (2003)). We generated mutants in which 1-8 surface residues localized within 5 A of one another were Ala-substituted. Because of the coiling nature of the LRR structure, as residues juxtaposed on the protein surface are commonly separated by approximately 25 residues in the primary structure. In addition to mutations in specific charged surface patches, other mutations were targeted to glycosylation sites and to regions predicted to be involved in ligand binding based on the NgR structure (Barton, W. A., et al., Embo J. 22:3291-3302 (2003); He, X. L., et al., Neuron 38:177-185 (2003)). In addition, a variant corresponding to a human polymorphism was examined (D259N). None of the mutations altered the Leu residues that define the LRR structure itself or the Cys residues critical in the amino and carboxyl terminal capping domains. The vast majority of such Ala surface substitution mutants were expressed as immunoreactive polypeptides with a molecular weight and an expression level indistinguishable from wild type NgR (FIG. 4C and data not shown).
(§4) This collection of 74 individual NgR mutants was interrogated for AP-Nogo-66, AP-Amino-Nogo-B4C, AP-MAG, AP-OMgp, and AP-Lingo-1 binding. AP-Nogo66, AP-MAG, AP-OMGP and AP-Lingo-1 constructs are described elsewhere (Fournier, A. E., et al., Nature 409:341-346 (2001); Liu, B. P., et al., Science 297:1190-1193 (2002); Mi, S., et al., Nat. Neurosci. 7:221-228 (2004); Wang, K. C., et al., Nature 417:941-944 (2002b)). The properties of the NgR mutants fell into one of three major categories (Table II and FIG. 5). A number of Ala substituted NgR polypeptides bound all of the ligands at wild type levels. […] In addition, a significant extent of the concave surface is dispensable for ligand binding.
(§5) Binding of Alanine substituted NgR mutants to NgR ligands were compared to wild type NgR and the levels of binding were categorized as ++ (WT level), + (weaker than wild type), tr (trace binding), − (no binding), N/A (not determined). NgR mutant proteins were also subjected to SDS-PAGE and probed by anti-NgR antibodies. Mutants with expression level similar to WT NgR were labeled as “y”.

AP-B4C = biological target: T2, AP-B4C; test: Binding of AP-B4C to COS-7 cells expressing NgR mutants; set-up: key: ++: WT level; +: weaker than wild type; trace binding; −: no binding; conditions: AP-B4C 10 nM; level of binding compared to wild type NgR
Experimental: as §1, §2, §3, §4, §5

AP-OMgp = test: Binding of AP-OMgp to COS-7 cells expressing NgR mutants; set-up: key: ++: WT level; +: weaker than wild type; trace binding; −: no binding; conditions: AP-OMGP 10 nM; level of binding compared to wild type NgR
Experimental: as §1, §2, §3, §4, §5

NgR ligands = test: Binding of alanine substituted NgR mutants to NgR ligands, summary categories; conditions: AP-Nogo66, AP-B4C, AP-B4C66, AP-Lingo-1, AP-OMgp and AP-MAG; compared to wild type NgR
Summary of the method: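 Human NgR1 template; 74 mutants with 1-8 solvent-exposed charged surface residues (within 5 Å) Ala-substituted, plus glycosylation-site mutants and D259N polymorphism. Mutants tested for binding of AP-tagged Nogo66, Amino-Nogo-B4C, B4C66, MAG, OMgp and Lingo-1; each classed as losing all, keeping all, or selective ligand binding.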

AP-B4C66 = test: Binding of AP-B4C66 to COS-7 cells expressing NgR mutants; set-up: key: ++: WT level; +: weaker than wild type; trace binding; −: no binding; conditions: AP-B4C66 0.5 nM; level of binding compared to wild type NgR
Experimental: as §1, §2, §3, §4, §5

AP-Lingo-1 = biological target: T3, AP-Lingo-1; test: Binding of AP-Lingo-1 to COS-7 cells expressing NgR mutants; set-up: key: ++: WT level; +: weaker than wild type; trace binding; −: no binding; conditions: AP-Lingo-1 10 nM; level of binding compared to wild type NgR
Experimental: as §1, §2, §3, §4, §5

AP-MAG = test: Binding of AP-MAG to COS-7 cells expressing NgR mutants; set-up: key: ++: WT level; +: weaker than wild type; trace binding; −: no binding; conditions: AP-MAG 30 nM; level of binding compared to wild type NgR
Experimental: as §1, §2, §3, §4, §5

| Molecule | Ng66 (AP-Nogo66) | B4C (AP-B4C) | ligand binding category of NgR mutant (Table II) (NgR ligands) | Lingo-1 (AP-Lingo-1) | OMgp (AP-OMgp) | B4C-66 (AP-B4C66) | MAG (AP-MAG) |
| --- | --- | --- | --- | --- | --- | --- | --- |
| 117, 119, 120: human NgR1 mutant, listed residues mutated to alanine (protein) CPGACVCYNEPKVTTSCPQQGLQAVPVGIPAASQRIFLHGNRISHVPAASFRACRNLTILWLHSNVLARIDAAAFTGLALLEQLDLSDNAALAAVDPATFHGLGRLHTLHLDRCGLQELGPGLFRGLAALQYLYLQDNALQALPDDTFRDLGNLTHLFLHGNRISSVPERAFRGLHSLDRLLLHQNRVAHVHPHAFRDLGRLMTLYLFANNLSALPTEALAPLRALQYLRLNDNPWVCDCRARPLWAWLQKFRGSSSEVPCSLPQRLAGRDLKRLAANDLQGCAVATGPYHPIWTGRATDEEPLGLPKCCQPDAADKASVLEPGRPASAGNALKGRVPPGDSPPGNGSGPRHINDSPFGTLPGSAEPPLTAVRPEGSEPPGFPTSGPRRRPGCSRKNRTRSHCRLGQAGSGGGGTGDSEGSGALPSLTCSLTPLGLALVLWTVLGPC | ++ | ++ | Differential binding | tr | tr | ++ | − |
| 216, 218, 220: human NgR1 mutant, listed residues mutated to alanine (protein) CPGACVCYNEPKVTTSCPQQGLQAVPVGIPAASQRIFLHGNRISHVPAASFRACRNLTILWLHSNVLARIDAAAFTGLALLEQLDLSDNAQLRSVDPATFHGLGRLHTLHLDRCGLQELGPGLFRGLAALQYLYLQDNALQALPDDTFRDLGNLTHLFLHGNRISSVPERAFRGLHSLDRLLLHQNRVAAVAPAAFRDLGRLMTLYLFANNLSALPTEALAPLRALQYLRLNDNPWVCDCRARPLWAWLQKFRGSSSEVPCSLPQRLAGRDLKRLAANDLQGCAVATGPYHPIWTGRATDEEPLGLPKCCQPDAADKASVLEPGRPASAGNALKGRVPPGDSPPGNGSGPRHINDSPFGTLPGSAEPPLTAVRPEGSEPPGFPTSGPRRRPGCSRKNRTRSHCRLGQAGSGGGGTGDSEGSGALPSLTCSLTPLGLALVLWTVLGPC | ++ | ++ | Differential binding | + | + | ++ | tr |

More lines, main results first:

| Ng66 (AP-Nogo66) | B4C (AP-B4C) | ligand binding category of NgR mutant (Table II) (NgR ligands) | Lingo-1 (AP-Lingo-1) | Molecule | OMgp (AP-OMgp) | B4C-66 (AP-B4C66) | MAG (AP-MAG) |
| --- | --- | --- | --- | --- | --- | --- | --- |
| tr | tr | Differential binding | + | 237, 256, 259: human NgR1 mutant, listed residues mutated to alanine (protein) CPGACVCYNEPKVTTSCPQQGLQAVPVGIPAASQRIFLHGNRISHVPAASFRACRNLTILWLHSNVLARIDAAAFTGLALLEQLDLSDNAQLRSVDPATFHGLGRLHTLHLDRCGLQELGPGLFRGLAALQYLYLQDNALQALPDDTFRDLGNLTHLFLHGNRISSVPERAFRGLHSLDRLLLHQNRVAHVHPHAFRDLGRLMTLYLFANALSALPTEALAPLRALQYLALNANPWVCDCRARPLWAWLQKFRGSSSEVPCSLPQRLAGRDLKRLAANDLQGCAVATGPYHPIWTGRATDEEPLGLPKCCQPDAADKASVLEPGRPASAGNALKGRVPPGDSPPGNGSGPRHINDSPFGTLPGSAEPPLTAVRPEGSEPPGFPTSGPRRRPGCSRKNRTRSHCRLGQAGSGGGGTGDSEGSGALPSLTCSLTPLGLALVLWTVLGPC | tr | + | − |
| + | + | Differential binding | − | 220, 223, 224: human NgR1 mutant, listed residues mutated to alanine (protein) CPGACVCYNEPKVTTSCPQQGLQAVPVGIPAASQRIFLHGNRISHVPAASFRACRNLTILWLHSNVLARIDAAAFTGLALLEQLDLSDNAQLRSVDPATFHGLGRLHTLHLDRCGLQELGPGLFRGLAALQYLYLQDNALQALPDDTFRDLGNLTHLFLHGNRISSVPERAFRGLHSLDRLLLHQNRVAHVHPAAFAALGRLMTLYLFANNLSALPTEALAPLRALQYLRLNDNPWVCDCRARPLWAWLQKFRGSSSEVPCSLPQRLAGRDLKRLAANDLQGCAVATGPYHPIWTGRATDEEPLGLPKCCQPDAADKASVLEPGRPASAGNALKGRVPPGDSPPGNGSGPRHINDSPFGTLPGSAEPPLTAVRPEGSEPPGFPTSGPRRRPGCSRKNRTRSHCRLGQAGSGGGGTGDSEGSGALPSLTCSLTPLGLALVLWTVLGPC | − | + | tr |
